According to US7183387 (Genentech, dated 2007):
One block for each binder: values may come before it.

Key:
[1] = target: T1, human FcγRIIA-His131 α subunit extracellular domain-His6-GST fusion (human, UniProt P12318 34-217); experiment: hexamer ELISA
T1 construct: extracellular domain; also called FcγRIIA-H131; not shown: glutathione S transferase (GST)
T1 sequence: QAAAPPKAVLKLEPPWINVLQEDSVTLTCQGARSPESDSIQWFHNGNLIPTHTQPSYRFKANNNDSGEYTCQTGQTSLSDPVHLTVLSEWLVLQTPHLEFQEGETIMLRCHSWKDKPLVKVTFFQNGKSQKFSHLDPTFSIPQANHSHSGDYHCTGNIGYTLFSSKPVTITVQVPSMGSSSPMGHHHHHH

[2] = target: T2, human FcγRIIIA-Phe158 α subunit extracellular domain-His6-GST fusion (human, UniProt P08637 17-208); experiment: hexamer ELISA
T2 construct: extracellular domain; also called FcγRIIIA-F158; CD16; not shown: glutathione S transferase (GST)

[3] = target: T3, human FcγRIIIA-F158 α subunit extracellular domain-6His-GST fusion (human, UniProt P08637 17-208); experiment: ELISA, IgG:IgE hexamers on receptor-GST
T3 construct: also called FcγRIIIA-Phe158; not shown: glutathione S-transferase (GST)

[4] = target: T4, human FcγRIIA-R131 α subunit extracellular domain-6His-GST fusion (human, UniProt P12318 34-217); experiment: ELISA, IgG:IgE hexamers on receptor-GST
T4 construct: also called FcγRIIA-Arg131; not shown: glutathione S-transferase (GST)
T4 sequence: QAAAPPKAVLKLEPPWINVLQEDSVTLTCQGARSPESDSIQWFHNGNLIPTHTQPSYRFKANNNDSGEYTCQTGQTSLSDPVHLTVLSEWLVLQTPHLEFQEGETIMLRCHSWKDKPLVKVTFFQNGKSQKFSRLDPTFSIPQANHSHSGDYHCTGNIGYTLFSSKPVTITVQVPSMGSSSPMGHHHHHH

[5] = target: T5, human FcγRIIA-H131 α subunit extracellular domain-6His-GST fusion (human, UniProt P12318 34-217); experiment: ELISA, IgG:IgE hexamers on receptor-GST
T5 construct: also called FcγRIIA-His131; not shown: glutathione S-transferase (GST)
T5 sequence: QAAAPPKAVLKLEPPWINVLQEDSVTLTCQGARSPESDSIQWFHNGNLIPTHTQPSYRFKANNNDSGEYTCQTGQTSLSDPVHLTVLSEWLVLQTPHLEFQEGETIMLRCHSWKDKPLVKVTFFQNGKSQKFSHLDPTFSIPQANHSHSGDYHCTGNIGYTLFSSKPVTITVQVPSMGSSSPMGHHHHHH

[6] = target: T6, human FcγRIIB α subunit extracellular domain-6His-GST fusion (human, UniProt P31994 43-217); experiment: ELISA, IgG:IgE hexamers on receptor-GST
T6 construct: not shown: glutathione S-transferase (GST)
T6 sequence: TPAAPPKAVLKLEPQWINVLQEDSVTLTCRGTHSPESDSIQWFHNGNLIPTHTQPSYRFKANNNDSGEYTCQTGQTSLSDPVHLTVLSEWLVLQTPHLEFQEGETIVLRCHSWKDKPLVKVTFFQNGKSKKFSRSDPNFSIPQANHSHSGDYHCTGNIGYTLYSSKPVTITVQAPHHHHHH

[7] = target: T7, human neonatal Fc receptor (FcRn), biotinylated (human, UniProt P55899 24-297; P61769 21-119, biotinylated (biotin-X-NHS)); experiment: FcRn ELISA
T7 construct: captured on streptavidin plates
Method: FcRn Binding ELISA: For measuring FcRn binding activity of IgG variants, ELISA plates were coated with 2 µg/ml streptavidin (Zymed, South San Francisco) in 50 mM carbonate buffer, pH 9.6, at 4° C. overnight and blocked with PBS-0.5% BSA, pH 7.2 at room temperature for one hour. Biotinylated FcRn (prepared using biotin-X-NHS from Research Organics, Cleveland, Ohio and used at 1–2 µg/ml) in PBS-0.5% BSA, 0.05% polysorbate 20, pH 7.2, was added to the plate and incubated for one hour. Two fold serial dilutions of IgG standard (1.6–100 ng/ml) or variants in PBS-0.5% BSA, 0.05% polysorbate 20, pH 6.0, were added to the plate and incubated for two hours. Bound IgG was detected using peroxidase labeled goat F(ab')_2 anti-human IgG F(ab')_2 in the above pH 6.0 buffer (Jackson ImmunoResearch, West Grove, Pa.) followed by 3,3',5,5'-tetramethyl benzidine (Kirgaard & Perry Laboratories) as the substrate. […] Absorbance was read at 450 nm on a Vmax plate reader (Molecular Devices, Menlo Park, Calif.). Titration curves were fit with a four-parameter nonlinear regression curve-fitting program (KaleidaGraph, Synergy software, Reading, Pa.). Concentrations of IgG variants corresponding to the mid-point absorbance of the titration curve of the standard were calculated and then divided by the concentration of the standard corresponding to the mid-point absorbance of the standard titration curve.

[8] = target: T8, human FcγRIIIA-Phe158 α subunit extracellular domain-His6-GST fusion protein (human, UniProt P08637 17-208); experiment: ELISA format, hexameric complex on FcγRIIIA-Phe158; separate assays run together with the Val158 assays
T8 construct: ELISA-format target; also called FcγRIIIA-F158; not shown: glutathione S-transferase (GST)

[9] = target: T9, human FcγRIIIA-Phe158 with human γ-chain on stably transfected CHO cells (human, UniProt P08637 17-254; P30273 19-86); experiment: flow cytometry, monomeric IgG on CHO cells with FcγRIIIA-Phe158 α- and γ-chains
T9 construct: whole, on cells; CHO cells stably transfected with the α- and γ-chains of the receptor; also called FcγRIIIA-Phe158 (cell-based assay)
Method: CHO cell transfection was carried out using Superfect (Qiagen) according to the manufacturer's instructions. […] Receptor expression levels were determined by staining with anti-FcγRIII monoclonal antibody 3G8 (Medarex). Binding of IgG1 variants was performed by adding monomeric IgG in staining buffer to 5×10^5 cells and incubating in 96 well round-bottom tissue culture plates (Costar, Cambridge, Mass.) at 4° C. for 30 min. Cells were washed three times with staining buffer and IgG binding detected by addition of 1:200 PE-F(ab')_2 fragment of goat anti-human IgG and incubation for 30 min at 4° C. After washing, immunofluorescence staining was analyzed on a FACScan flow cytometer using Cellquest software (Becton Dickinson). Dead cells were excluded from analysis by addition of 1 μg/ml propidium iodide.
For FcγRIIIA, the selected variants were assayed in the ELISA-format as well as on stable-transfected CHO cell lines expressing the γ-chains (FcγRIIIA-Phe158 or FcγRIIIA-Val158) with the associated human α-chain.

[10] = target: T10, human FcγRIIIA-Val158 α subunit extracellular domain-His6-GST fusion protein (human, UniProt P08637 17-208); experiment: ELISA format, hexameric complex on FcγRIIIA-Val158
T10 construct: ELISA-format target; also called FcγRIIIA-V158; not shown: glutathione S-transferase (GST)

[11] = target: T11, human FcγRIIIA-Val158 with human γ-chain on stably transfected CHO cells (human, UniProt P08637 17-254; P30273 19-86); experiment: flow cytometry, monomeric IgG on CHO cells with FcγRIIIA-Val158 α- and γ-chains
T11 construct: whole, on cells; CHO cells stably transfected with the α- and γ-chains of the receptor; also called FcγRIIIA-Val158 (cell-based assay); FcγRIIIA-V158

[12] = target: T8, human FcγRIIIA-Phe158 α subunit …; experiment: ELISA, IgG:IgE hexamer on coated FcγRIIIA-Phe158-GST; value carried over from an earlier table (printed in Table 8)
[13] = target: T12, human FcγRIIA-H131 α subunit extracellular domain-His6-GST fusion protein (human, UniProt P12318 34-217); experiment: ELISA, IgG:IgE hexamer on coated FcγRIIA-H131-GST
T12 construct: also called FcγRIIA-His131; not shown: glutathione S-transferase (GST)
T12 sequence: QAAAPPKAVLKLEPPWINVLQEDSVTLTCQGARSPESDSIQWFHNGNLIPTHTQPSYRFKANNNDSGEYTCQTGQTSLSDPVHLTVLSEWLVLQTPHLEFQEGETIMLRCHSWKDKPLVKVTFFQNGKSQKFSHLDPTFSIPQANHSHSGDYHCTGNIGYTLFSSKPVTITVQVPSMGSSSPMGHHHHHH

[14] = target: T13, human FcγRIIA-R131 α subunit extracellular domain-His6-GST fusion protein (human, UniProt P12318 34-217); experiment: ELISA, IgG:IgE hexamer on coated FcγRIIA-R131-GST; separate assays run together with the H131 assays
T13 construct: ECD-6His-GST fusion made in 293 cells, coated on the plate; also called FcγRIIA-Arg131; not shown: glutathione S-transferase (GST)
T13 sequence: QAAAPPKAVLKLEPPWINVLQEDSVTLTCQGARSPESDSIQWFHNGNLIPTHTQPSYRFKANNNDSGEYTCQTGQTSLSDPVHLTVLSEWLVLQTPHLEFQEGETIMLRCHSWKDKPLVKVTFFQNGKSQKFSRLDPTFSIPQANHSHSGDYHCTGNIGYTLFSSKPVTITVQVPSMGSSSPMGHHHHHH

[15] = target: T12, human FcγRIIA-H131 α subunit …; experiment: ELISA; binding ratio on FcγRIIA-H131 divided by that on FcγRIIA-R131
[16] = target: T13, human FcγRIIA-R131 α subunit …; experiment: ELISA, IgG:IgE hexamer on coated FcγRIIA-R131-GST; value said to be carried over from Table 6, 7 or 8

T8 sequence (P08637 other isoform, or with tags, fused parts or gaps, form in doubt): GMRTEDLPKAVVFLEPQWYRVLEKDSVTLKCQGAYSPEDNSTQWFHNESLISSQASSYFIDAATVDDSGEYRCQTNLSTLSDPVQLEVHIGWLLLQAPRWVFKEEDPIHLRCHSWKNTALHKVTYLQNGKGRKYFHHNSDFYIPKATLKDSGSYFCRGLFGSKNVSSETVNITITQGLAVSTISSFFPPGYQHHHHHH
T9 sequence (P08637 17-254, chain 1 of 2): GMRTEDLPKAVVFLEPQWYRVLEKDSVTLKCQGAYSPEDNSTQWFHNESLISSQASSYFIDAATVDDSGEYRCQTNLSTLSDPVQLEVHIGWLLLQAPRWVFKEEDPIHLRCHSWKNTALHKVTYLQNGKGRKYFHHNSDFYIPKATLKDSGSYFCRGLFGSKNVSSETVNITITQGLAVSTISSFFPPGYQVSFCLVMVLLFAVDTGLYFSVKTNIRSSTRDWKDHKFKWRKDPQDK
T9 sequence (P30273 19-86, chain 2 of 2): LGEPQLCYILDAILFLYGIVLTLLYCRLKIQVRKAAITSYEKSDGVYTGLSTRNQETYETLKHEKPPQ
T10 sequence (P08637 other isoform, or with tags, fused parts or gaps, form in doubt): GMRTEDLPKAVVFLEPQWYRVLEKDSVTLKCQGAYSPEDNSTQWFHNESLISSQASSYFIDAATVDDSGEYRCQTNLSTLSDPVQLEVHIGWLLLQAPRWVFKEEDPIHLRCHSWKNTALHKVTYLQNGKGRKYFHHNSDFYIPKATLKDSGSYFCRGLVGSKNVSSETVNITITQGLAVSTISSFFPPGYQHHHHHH
T11 sequence (P08637 17-254 F176V, chain 1 of 2): as the sequence (P08637 17-254, chain 1 of 2) above, with F160V counted along it
T11 sequence (P30273 19-86, chain 2 of 2): as the sequence (P30273 19-86, chain 2 of 2) above

binding result [7]: binds
B3: anti-IgE E27 IgG1 T307Q (antibody)
heavy: not shown
light: DIQLTQSPSSLSASVGDRVTITCRASKPVDGEGDSYLNWYQQKPGKAPKLLIYAASYLESGVPSRFSGSGSGTDFTLTISSLQPEDFATYYCQQSHEDPYTFGQGTKVEIKRTVAAPSVFIFPPSDEQLKSGTASVVCLLNNFYPREAKVQWKVDNALQSGNSQESVTEQDSKDSTYSLSSTLTLSKADYEKHKVYACEVTHQGLSSPVTKSFNRGEC

ratio of binding of the variant to that of native IgG1 [8]: 2.17 ratio (variant/native IgG1)
ratio of binding of the variant to that of native IgG1 [9]: 3.42 ratio (variant/native IgG1)
ratio of binding of the variant to that of native IgG1 [10]: 1.11 ratio (variant/native IgG1)
ratio of binding of the variant to that of native IgG1 [11]: 1.65 ratio (variant/native IgG1)
ratio of binding of the variant to that of native IgG1 [12]: 1.51 ratio (variant/native IgG1)
B4: anti-IgE E27 IgG1 variant Ser298Ala/Glu333Ala/Lys334Ala (antibody)
heavy: EVQLVESGGGLVQPGGSLRLSCAVSGYSITSGYSWNWIRQAPGKGLEWVASIKYSGETKYNPSVKGRITISRDDSKNTFYLQMNSLRAEDTAVYYCARGSHYFGHWHFAVWGQGTLVTVSSASTKGPSVFPLAPSSKSTSGGTAALGCLVKDYFPEPVTVSWNSGALTSGVHTFPAVLQSSGLYSLSSVVTVPSSSLGTQTYICNVNHKPSNTKVDKKVEPKSCDKTHTCPPCPAPELLGGPSVFLFPPKPKDTLMISRTPEVTCVVVDVSHEDPEVKFNWYVDGVEVHNAKTKPREEQYNATYRVVSVLTVLHQDWLNGKEYKCKVSNKALPAPIAATISKAKGQPREPQVYTLPPSREEMTKNQVSLTCLVKGFYPSDIAVEWESNGQPENNYKTTPPVLDSDGSFFLYSKLTVDKSRWQQGNVFSCSVMHEALHNHYTQKSLSLSPGK
light: DIQLTQSPSSLSASVGDRVTITCRASKPVDGEGDSYLNWYQQKPGKAPKLLIYAASYLESGVPSRFSGSGSGTDFTLTISSLQPEDFATYYCQQSHEDPYTFGQGTKVEIKRTVAAPSVFIFPPSDEQLKSGTASVVCLLNNFYPREAKVQWKVDNALQSGNSQESVTEQDSKDSTYSLSSTLTLSKADYEKHKVYACEVTHQGLSSPVTKSFNRGEC
notes: also called IG2 110

ratio of binding of the variant to that of native IgG1 [13]: 1.13 ratio (variant/native IgG1)
ratio of binding of the variant to that of native IgG1 [14]: 1.05 ratio (variant/native IgG1)
H131/R131 [15]: 1.1 ratio (H131 value/R131 value)
ratio of binding of the variant to that of native IgG1 [16]: 1.14 ratio (variant/native IgG1)
B5: anti-IgE E27 IgG1 variant Lys320Ala (antibody)
heavy: not shown
light: DIQLTQSPSSLSASVGDRVTITCRASKPVDGEGDSYLNWYQQKPGKAPKLLIYAASYLESGVPSRFSGSGSGTDFTLTISSLQPEDFATYYCQQSHEDPYTFGQGTKVEIKRTVAAPSVFIFPPSDEQLKSGTASVVCLLNNFYPREAKVQWKVDNALQSGNSQESVTEQDSKDSTYSLSSTLTLSKADYEKHKVYACEVTHQGLSSPVTKSFNRGEC
notes: also called K320(339)A; IG2 48

Further lines, the binder ahead of its results:

B1: anti-IgE E27 IgG1 Ser267Gly (antibody)
heavy: not shown
light: DIQLTQSPSSLSASVGDRVTITCRASKPVDGEGDSYLNWYQQKPGKAPKLLIYAASYLESGVPSRFSGSGSGTDFTLTISSLQPEDFATYYCQQSHEDPYTFGQGTKVEIKRTVAAPSVFIFPPSDEQLKSGTASVVCLLNNFYPREAKVQWKVDNALQSGNSQESVTEQDSKDSTYSLSSTLTLSKADYEKHKVYACEVTHQGLSSPVTKSFNRGEC
reduction in binding against native IgG1 [1]: 50%
binding result [2]: no binding

B2: E27 IgG1 variant S267(280)G (antibody)
heavy: not shown
light: DIQLTQSPSSLSASVGDRVTITCRASKPVDGEGDSYLNWYQQKPGKAPKLLIYAASYLESGVPSRFSGSGSGTDFTLTISSLQPEDFATYYCQQSHEDPYTFGQGTKVEIKRTVAAPSVFIFPPSDEQLKSGTASVVCLLNNFYPREAKVQWKVDNALQSGNSQESVTEQDSKDSTYSLSSTLTLSKADYEKHKVYACEVTHQGLSSPVTKSFNRGEC
notes: also called IG2 189
ratio to native IgG1 [3]: 0.08
ratio to native IgG1 [4]: 1.18
ratio to native IgG1 [5]: 0.59
ratio to native IgG1 [6]: 0.95
